Experimental data: the supplement of paper PMC10567573
± gives the standard deviation.

Experiment: protein stability index of a GFP-peptide fusion (GPS, HEK-293T) (PSI 1-6); higher = more stable
Conditions: c terminus: a fixed tail appended
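Note: 24-mer peptide tiles fused after GFP, lentivirally expressed, FACS-sorted into six equal bins by GFP/DsRed ratio, decoded by Illumina sequencing, PSI is the read-weighted mean bin number.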

Sequence | protein stability index (treatment: DMSO) | protein stability index (treatment: MLN4924 1 uM, 8 h)
ERPRMNANSLLASPTGLSPYLRFG [CRY1] | 2.89 ± 0.21 | 2.98 ± 0.22
ERYRHEIAHDGQRIYVLGGGTSWT [KLHDC10] | 2.83 ± 0.48 | 2.79 ± 0.23
ESEDCKLPSNPCATTNACEKPIGS [KRT33B] | 5.48 ± 0.097 | 5.34 ± 0.18
ESFRDLQLRLLQAPLQADLTEQVW [SCARA5] | 2.59 ± 0.089 | 3.1 ± 0.4
ESLMALCTDFCLRNLDGTLGYLLD [ZER1] | 2.71 ± 0.4 | 2.94 ± 0.39
ESPIPEDKDRRFVFSYFLATDMIS [EFHC1] | 2.33 ± 0.28 | 2.23 ± 0.29
ESPSLTSTPVCSQKVVVTTPLHRD [MYBL2] | 4.83 ± 0.2 | 4.5 ± 0.11
ESSQTDLKLVAHPRAKSKVWKYFG [ZBED1] | 3.02 ± 0.31 | 3.42 ± 0.27
ESTTKESSEASQLEDAAGGDSASE [FBXO34] | 5.61 ± 0.34 | 5.71 ± 0.12
ESVVKSEDFSLPAYMDRRDHPLPE [COX4I1] | 5.1 ± 0.17 | 4.82 ± 0.098
ETHLRHMKALLGSYAHSVEDTHVQ [FCHO1] | 3.49 ± 0.5 | 3.35 ± 0.29
ETIKCVVVGDNAVGKTRLICARAC [RHOBTB1] | 2.39 ± 0.2 | 2.44 ± 0.21
ETKKVLGLQDTITAELVVIEDAAE [PALM] | 4.92 ± 0.35 | 4.78 ± 0.32
ETLQPSVWFGGREHVLMFAKLALY [TMEM175] | 2.52 ± 0.46 | 2.44 ± 0.43
ETRDWGGAQFEGEKGRALQIRDWR [ZSWIM9] | 3.63 ± 0.32 | 3.84 ± 0.15
ETTERMKCLYYLYATLDLNAVKYV [PDS5B] | 2.88 ± 0.3 | 3.12 ± 0.47
ETVADVRTLPNASTVDNIRSIFGN [MLH1] | 4.21 ± 0.18 | 4.19 ± 0.11
ETVQTWIELLTGETWNPFKLQYQL [GOLPH3L] | 2.65 ± 0.6 | 2.74 ± 0.71
ETVVNRIAAGEVIQRPANAIKEMI [MLH1] | 3.17 ± 0.17 | 3.36 ± 0.19
EVCCTSIVYATEKKQTKVEFPEAR [KCTD13] | 3.88 ± 0.34 | 3.9 ± 0.28
EVDEEGFTVRPDVTQNSTAEPSRF [FCHO1] | 5.26 ± 0.13 | 5.26 ± 0.2
EVFEGREDSILGDPKKLLTQHFVQ [MAGEA3] | 3.42 ± 0.49 | 3.29 ± 0.4
EVMKCIVEVISDTLSKPSPMPVSQ [CHGA] | 2.55 ± 0.18 | 2.48 ± 0.4

Sequence | protein stability index (treatment: DMSO) | protein stability index (treatment: MLN4924 1 uM, 8 h)
EVSSIQVRRKPQHGVCSQLLGNYR [SERPINB9P1] | 2.84 ± 0.38 | 2.94 ± 0.29
EWVISTGHDKCVSWMCTRSGNMLG [WDFY1] | 2.09 ± 0.37 | 2.01 ± 0.41
EYLENQVIKDKDDSVDAQNICHVW [RNF180] | 3.42 ± 0.26 | 3.57 ± 0.27
FAHSSNLLRHQRIHTGERPYKCPE [ZNF263] | 2.99 ± 0.28 | 3.35 ± 0.36
FDGPEAWGVCEPQREEVEERMWAA [ZER1] | 3.43 ± 0.71 | 4 ± 0.53
FEAPPLQGQAAAPASGSGADSEPA [TRIM55] | 5.65 ± 0.28 | 5.53 ± 0.1
FEDLPLQEPQSPQKLNPGFDLAKG [PLAGL1] | 5.03 ± 0.14 | 4.83 ± 0.19
FESLPENASHKLEVRLVPVSFEDP [ATE1] | 3.68 ± 0.13 | 3.68 ± 0.31
FFFSSPGNNNGTSIEDGQIPEIIF [BTBD1] | 2.39 ± 0.22 | 2.44 ± 0.33
FHGWKYMFGLVIPLGVLQAIAMYF [SLC2A12] | 2.31 ± 0.46 | 2.6 ± 0.56
FKKGKNPTGLLALQQIADFMTTNV [ADD1] | 2 ± 0.23 | 2.61 ± 0.34
FKRSTGTWHHTKPLLPSDLRRTGC [GAN] | 2.78 ± 0.22 | 2.82 ± 0.39
FKTYISPWERAMGVDPQQKMELGI [MYOZ1] | 2.42 ± 0.25 | 2.31 ± 0.38
FLLLIVFYTAITKKIFKSHLKSSR [P2RY14] | 2.69 ± 0.42 | 2.52 ± 0.65
FLMGRVLYFHHYFPAMLFSSMLTG [POMT2] | 3.35 ± 0.21 | 3.37 ± 0.43
FLPVDTSNNNGRIKQLRSGGTPIR [PTPRD] | 3.33 ± 0.3 | 3.51 ± 0.063
FNGNYKVDSPKNFNIAGTVVKYRR [ADAMTSL2] | 3.14 ± 0.23 | 3.44 ± 0.36
FNKGIYDIHVGLRGVPLLEWETEV [CLCN6] | 2.13 ± 0.32 | 2.17 ± 0.44
FQRRNMIEPRERAKFKRKYKVKLV [NOP53] | 2.87 ± 0.46 | 3.39 ± 0.58
FQVPVLCAVMNVVFITILIIALIA [CD69] | 2.91 ± 0.36 | 2.96 ± 0.68
FRETEKSRWSEASRAILQRVQAAA [ALKBH7] | 3.21 ± 0.18 | 3.3 ± 0.16
FRFDKPKKSRSPASAEAPGDSGER [ZNF511] | 4.95 ± 0.11 | 5.11 ± 0.38
FRNCGACVTLMQGHEGSVSSCHFA [WDR88] | 2.85 ± 0.62 | 2.59 ± 0.37

Sequence | protein stability index (treatment: DMSO) | protein stability index (treatment: MLN4924 1 uM, 8 h)
FRPVSETCTDRSGISTGHWSGEVK [FUT8] | 3.79 ± 0.28 | 3.84 ± 0.26
FRSRSRLTHLSLSRRASESSLSSE [CDC25B] | 3.84 ± 0.22 | 3.99 ± 0.099
FSSITDSTMSLNIITVTLNMEKYN [DVL3] | 2.93 ± 0.63 | 2.75 ± 0.57
FTDYGLAALAVNTSILSRLPPEAL [RNF208] | 2.29 ± 0.25 | 2.13 ± 0.31
FTEASMMMSLTKLADKELVHMISW [ESR2] | 3.29 ± 0.78 | 3.48 ± 1.2
FTGNSKLELNFKAGDVIFLLSRIN [NCF4] | 2.67 ± 0.76 | 3.16 ± 1.1
FTGSQPTAERITQLSAPHCKKLSL [ALDH8A1] | 2.89 ± 0.5 | 3.46 ± 0.35
FTLASSSDTRVGAPATGSGTPGPF [CHIT1] | 3.73 ± 0.19 | 3.84 ± 0.39
FVENGHSESSGQTHLEGDTVQIIC [CFHR2] | 3.21 ± 0.38 | 3.67 ± 0.37
FWNSPSSPSSSAASSSSPSSSSAV [RHOBTB2] | 4.41 ± 0.14 | 4.4 ± 0.089
GAAAPATPTPVAAALDACSGNDPF [SNAP91] | 5.18 ± 0.34 | 5.15 ± 0.24
GAGDVVLLQRELAQEDSLNKLALQ [LYSMD4] | 4.29 ± 0.29 | 4.01 ± 0.5
GATLGQTTSEEAVGGATLAQTTSE [HDAC6] | 5.37 ± 0.34 | 5.63 ± 0.31
GCEHSCVSSEDSFVCQCFEGYILR [MATN2] | 3.12 ± 0.38 | 3.27 ± 0.53
GDDQPSETDHLSMEEEDPMPRQIS [TPRG1] | 5.47 ± 0.17 | 5.64 ± 0.22
GDGLLVGSEKVTMQNLNDRLASYL [KRT16] | 2.66 ± 0.17 | 2.78 ± 0.32
GDGVPPRSLQDGTREGFGHSTSLK [LCOR] | 5.08 ± 0.24 | 4.92 ± 0.22
GDMNHEWIGNEWLPSLGLPQYRSY [PPFIA4] | 2.41 ± 0.73 | 2.8 ± 0.38
GEGKLSKRLKHKDDSVMKATQQAR [C22orf31] | 4.64 ± 0.21 | 4.81 ± 0.22
GEKPFKCHLCNYACRRRDALTGHL [IKZF1] | 2.2 ± 0.12 | 2.51 ± 0.53
GELEDESLNRACHQQNKIKDLQKE [CEP70] | 5.3 ± 0.28 | 5.34 ± 0.24
GFRLAEDGKRCRRKDVCKSTHHGC [MATN2] | 3.99 ± 0.66 | 4.09 ± 0.42
GGGGGGGGGGGGGGTSSNNSEEEE [ANKRD17] | 5.42 ± 0.23 | 5.41 ± 0.31

Sequence | protein stability index (treatment: DMSO) | protein stability index (treatment: MLN4924 1 uM, 8 h)
GGKSGELEQEEERLSKEWEDSKRW [CHGA] | 5.3 ± 0.33 | 5.07 ± 0.32
GGLVVSAASLAGCLGALCENTCLL [TSPAN10] | 2.79 ± 0.57 | 2.67 ± 0.54
GGSCRAPSTYGGGLSVSSRFSSGG [KRT16] | 2.97 ± 0.27 | 3.02 ± 0.15
GIAVWNMDVSREEAPQWLESDSCQ [WDFY1] | 3.81 ± 0.081 | 3.74 ± 0.28
GIDIMKTSFPGRGSIPEFFHIMKR [AASDHPPT] | 2.33 ± 0.59 | 2.501 ± 0.013
GIFEESFIEERRQGLEQFINKIAG [SNX12] | 2.98 ± 0.59 | 2.84 ± 0.32
GKGEGPIWLDNLHCTGNEATLAAC [LOXL2] | 3.43 ± 0.23 | 3.52 ± 0.57
GLALCPEVQDLLEGCELPDLPSSL [SMG5] | 4.05 ± 0.25 | 3.96 ± 0.25
GLEEADAEVSVISEADPQALLQAM [FBF1] | 5.06 ± 0.26 | 5.05 ± 0.15
GLEHAAAGGSSGTTARERPCVRPG [FBF1] | 4.96 ± 0.24 | 4.95 ± 0.2
GLGHGSTSRGGPWVGTGLAAALAG [CPOX] | 3.17 ± 0.21 | 3.21 ± 0.29
GMDPERLKAFNMFVRLFVDENLDR [NOL4L] | 2.1 ± 0.42 | 2.39 ± 0.37
GPEPKDKGSLPQPPITEVESQVFS [ZNF232] | 5.51 ± 0.078 | 5.36 ± 0.23
GPLPVKRGPPPRSGGPPPKRSAPS [RBMX] | 4.49 ± 0.39 | 4.85 ± 0.25
GPRDPQLVPILIEAARNGKMKFVI [NSDHL] | 2.11 ± 0.44 | 2.38 ± 0.38
GPSAEAYLLHPAAFHGAPSHLPTR [TBX6] | 3.31 ± 0.21 | 3.42 ± 0.16
GRHYWEVEVGDKTHWAVGVCRDSV [TRIM39] | 2.48 ± 0.41 | 2.42 ± 0.22
GRLLFAGYNDYTINVWDVLKGSRV [GNB5] | 2.48 ± 0.58 | 2.18 ± 0.17
GRQKYKRRPEVDPLPFPGPFPAGP [ESRRA] | 3.87 ± 0.22 | 4.02 ± 0.26
GRVHLVKEKTAKHFFALKVMSIPD [PRKX] | 1.87 ± 0.52 | 2.38 ± 0.57
